Measurements as given in patent US20120231006A1 (Amgen, published 2012).
Substitutions are numbered along the chain they refer to.

B1: mAb 2B4.1 (antibody, human IgG2, lambda, V domains shown)
VH: QVQLVQSGAEVKKPGASVKVSCKASGYTFTDYYMHWVRQAPGQGLEWMGWINPNSGGTNYVQKFQDRVTMTRDTSITTAYMELTRLRSDDTAVYYCAREEGDYGMDVWGQGTTVTVSS
VL: QSVLTQPPSVSGAPGQRVTISCTGSNSNIGTGYDVHWYQKLPGTAPRLLIYSHFNRPSGVPDRFSGSTSGTSASLAITGLQAEDEADYYCQSYDSSLSGSVFGGGTKLTVLG
B2: mAb 5F7.1 (antibody, human IgG2, lambda)
heavy: QVQLVQSGAEVKKPGASVKVPCKASGYTFTDYYINWVRQAPGQGLEWMGWINPNNGGTNYAQKFQGRVTMTRDTSISTAYMELRRLRSDDTAVYYCARERGGYEDWFDPWGQGTLVTVSSASTKGPSVFPLAPCSRSTSESTAALGCLVKDYFPEPVTVSWNSGALTSGVHTFPAVLQSSGLYSLSSVVTVPSSNFGTQTYTCNVDHKPSNTKVDKTVERKCCVECPPCPAPPVAGPSVFLFPPKPKDTLMISRTPEVTCVVVDVSHEDPEVQFNWYVDGVEVHNAKTKPREEQFNSTFRVVSVLTVVHQDWLNGKEYKCKVSNKGLPAPIEKTISKTKGQPREPQVYTLPPSREEMTKNQVSLTCLVKGFYPSDIAVEWESNGQPENNYKTTPPMLDSDGSFFLYSKLTVDKSRWQQGNVFSCSVMHEALHNHYTQKSLSLSPGK
light: QSVLTQPPSVSGAPGQRVTISCTGSSSNIGAGFDVHWYQQLPVTAPKLLIYGNRNRPSGVPARFSGSKSGTSASLAITGLQAEDEAVYYCQSYDSSLTVFGGGTKLTVLGQPKANPTVTLFPPSSEELQANKATLVCLISDFYPGAVTVAWKADGSPVKAGVETTKPSKQSNNKYAASSYLSLTPEQWKSHRSYSCQVTHEGSTVEKTVAPTECS
notes: fully human IgG2 lambda, Campaign 2
B3: mAb 5A1.1 (antibody, human IgG2)
heavy: B2 heavy
VL: QSVLTQPPSVSGAPGQRVTISCTGSSSNIGAGFDVHWYQQLPVTAPKLLIYGNRNRPSGVPARFSGSKSGTSASLAITGLQAEDEAVYYCQSYDSSLTVFGGGTKLTVL
notes: fully human, Campaign 2; lambda CL-1
B4: mAb 5A4.2 (antibody, human IgG2, lambda, V domains shown)
VH: QVQLVQSGAEVKKPGASVKVSCKASGYTFTDYYMNWVRQAPGQGLEWMGWINPNSGGTKYAQKFQGRVTMTRDTSIRTAYMELSRLRSDDTAVYYCSREYGGNSDWFDPWGQGTLVTVSS
VL: QSVLTQPPSVSGAPGQRVTISCTGSSSNIGAGYDVHWYQQLPGTAPKLLIYGNSNRPSGVPDRFSGSKSGTSASLAITGLQAEDEADYYCQSYDNRLSDSVVIGGGTKLTVQG
notes: as for B2
B5: mAb 5B1.1 (antibody, human IgG2, lambda, V domains shown)
VH: B4 VH with M34I, T58S, K59S, R77S, Y80H, S84I, S97A, Y100R, N103I, S104E
VL: QSVLTQPPSVSGAPGQRVTISCTGSSSNIGAGYDVHWYQQLPGTAPKLLIYGNSNRPSGVPDRFSGSKSGTSASLAITKFQAEDEAVYYCQSYGSGLSGVVFGGGTKLTVLG
notes: fully human IgG2 lambda, Campaign 2; also called mAb 5Bl1.1
B6: mAb 5B5.2 (antibody, human IgG2, lambda, V domains shown)
VH: B4 VH with M34I, K59D, S84N, R87T, S97A, N103Y, S104E
VL: QSVLTQPPSVSGAPGQRVTISCTGSNSNIGAGFDVHWYQQLPGTVPKLLIYGNNNRPSGVPDRFSGSKSGTSASLAITGLQAEDEADYYCQSYDSRLTVFGGGTKLTVLG
notes: fully human IgG2 lambda, Campaign 2; same chains as 5B5.1
B7: mAb 5C1.1 (antibody, human IgG2, lambda, V domains shown)
VH: B4 VH with S97A
VL: B4 VL with T110A
notes: as for B2
B8: mAb 5F2.1 (antibody, human IgG2, lambda, V domains shown)
VH: B4 VH with K59H, R77S, S97A, N103Y
VL: B4 VL with S26R, G43R, G52D, T71S, R96S, V102L, Q112L
notes: as for B2

The binders below were run against T1, hOrai1-mOrai1 ECL2 (AANVST) protein (human/mouse chimera, UniProt Q96D31 1-301) (assay: FACS, 293EBNA).
T1 construct: also called Ch
Design: concentration or dose not given beside the values
Experimental: (§1) FACS binding analysis. Transfected 293EBNA cells transiently expressed hOrai1-mOrai1 ECL2 or mOrai1-hOrai1 ECL2 chimera. The transfected cells were harvested at 48 hours post-transfection. Cells transfected with pcDNA3.1 were used as negative controls. Cells were washed once with ice-cold 1×PBS, resuspended in ice-cold FACS buffer (1×D-PBS+2% goat serum), and 2×10⁵ cells in 100 μL were stained per antibody combination. All antibody incubation steps were performed on ice for 1 hour. […] Next, the unlabelled antibody was detected using goat F(ab′)₂ anti-mouse or anti-human IgG-phycoerythrin (IgG-PE), followed by a wash with 200 μL of ice-cold FACS buffer before flow cytometry analysis. Unstained cells and cells stained with detecting antibodies were used as negative controls. The values of relative level of fluorescence were calculated using FCS Express (De Novo Software) and mean values were calculated using log-transformed data (geometric mean). The results of the FACS analysis are shown in FIG. 15A-B, which supports the conclusion that the hOrai1 ECL2 domain is the region of hOrai1 where antibodies of the present invention bind.
(§2) Representative results of FACS analysis of binding to the mutant hOrai1-mOrai1 ECL2 chimera described above by exemplary anti-hOrai1 antibodies of the present invention are shown in FIG. 17A-D, Table 10A and Table 10B below. Table 10A (Campaign 1) and Table 10B (Campaign 2) show the gain in binding ability of exemplary monoclonal antibodies to hOrai 1-mOrai 1 ECL2 chimera mutants as determined by FACS.

T1 sequence (Q96D31 other isoform, or with tags, fused parts or gaps): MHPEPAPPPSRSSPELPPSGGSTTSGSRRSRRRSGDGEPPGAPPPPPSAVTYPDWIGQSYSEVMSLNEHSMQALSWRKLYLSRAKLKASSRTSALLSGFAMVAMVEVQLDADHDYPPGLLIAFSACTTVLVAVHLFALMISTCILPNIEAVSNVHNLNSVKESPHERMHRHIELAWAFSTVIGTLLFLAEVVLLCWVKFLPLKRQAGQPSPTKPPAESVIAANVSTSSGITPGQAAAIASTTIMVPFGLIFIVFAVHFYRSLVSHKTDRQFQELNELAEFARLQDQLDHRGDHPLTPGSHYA

Row | percent of control (POC) of FACS Geo Mean | Binder
1 | < 1% | B1

Each binder was assayed against T2, hOrai1-mOrai1 ECL2 (GAA) protein (human/mouse chimera, UniProt Q96D31 1-301) (assay: FACS, 293EBNA).
T2 construct: also called Ch
Design: concentration or dose not given beside the values
Experimental: as §1, §2

T2 sequence (Q96D31 other isoform, or with tags, fused parts or gaps): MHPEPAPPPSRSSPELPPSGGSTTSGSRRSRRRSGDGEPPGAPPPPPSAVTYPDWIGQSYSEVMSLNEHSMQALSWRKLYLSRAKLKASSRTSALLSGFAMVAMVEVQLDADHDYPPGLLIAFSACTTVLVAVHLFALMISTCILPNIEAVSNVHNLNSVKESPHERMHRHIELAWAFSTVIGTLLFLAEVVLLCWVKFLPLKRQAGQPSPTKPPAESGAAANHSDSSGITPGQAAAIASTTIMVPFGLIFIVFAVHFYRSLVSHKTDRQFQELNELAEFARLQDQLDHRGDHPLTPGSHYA

Row | percent of control (POC) of FACS Geo Mean | Binder
2 | < 1% | B1

Each binder was assayed against T3, hOrai1-mOrai1 ECL2 (VST) protein (human/mouse chimera, UniProt Q96D31 1-301) (assay: FACS, 293EBNA).
T3 construct: also called Ch
Design: concentration or dose not given beside the values
Experimental: as §1, §2

T3 sequence (Q96D31 other isoform, or with tags, fused parts or gaps): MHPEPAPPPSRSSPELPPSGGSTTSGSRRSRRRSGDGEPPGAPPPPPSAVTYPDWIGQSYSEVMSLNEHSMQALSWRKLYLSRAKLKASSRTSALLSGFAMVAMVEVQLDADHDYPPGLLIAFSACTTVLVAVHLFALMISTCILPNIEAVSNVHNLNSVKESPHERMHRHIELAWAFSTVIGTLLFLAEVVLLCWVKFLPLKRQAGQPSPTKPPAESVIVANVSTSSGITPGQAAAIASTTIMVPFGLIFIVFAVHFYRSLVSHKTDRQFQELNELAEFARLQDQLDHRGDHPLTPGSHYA

Row | percent of control (POC) of FACS Geo Mean | Binder
3 | < 1% | B1

The binders below were run against T4, hOrai1-mOrai1 ECL2 (…) protein (human/mouse chimera, UniProt Q96D31 1-301) (assay: FACS, 293EBNA).
T4 construct: also called Ch
Design: concentration or dose not given beside the values
Experimental: as §1, §2
T4 sequence (Q96D31 other isoform, or with tags, fused parts or gaps): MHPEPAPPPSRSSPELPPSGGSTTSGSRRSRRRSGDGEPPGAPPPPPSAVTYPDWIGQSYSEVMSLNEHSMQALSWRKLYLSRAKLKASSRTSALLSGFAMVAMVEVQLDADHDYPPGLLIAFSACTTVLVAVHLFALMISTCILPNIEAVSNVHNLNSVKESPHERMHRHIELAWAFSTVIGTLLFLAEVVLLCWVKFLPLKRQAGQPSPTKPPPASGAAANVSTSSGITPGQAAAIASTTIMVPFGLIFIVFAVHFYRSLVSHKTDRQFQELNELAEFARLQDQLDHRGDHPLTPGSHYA

Row | percent of control (POC) of FACS Geo Mean | Binder
4 | < 1% | B1

Each binder was assayed against T5, hOrai1-mOrai1 ECL2 chimeric protein (human/mouse chimera, UniProt Q96D31 1-301) (assay: FACS, 293EBNA).
T5 construct: human Orai1 with mouse ECL2; also called Ch
Design: concentration or dose not given beside the values
Experimental: as §1, §2

T5 sequence (Q96D31 other isoform, or with tags, fused parts or gaps mutant): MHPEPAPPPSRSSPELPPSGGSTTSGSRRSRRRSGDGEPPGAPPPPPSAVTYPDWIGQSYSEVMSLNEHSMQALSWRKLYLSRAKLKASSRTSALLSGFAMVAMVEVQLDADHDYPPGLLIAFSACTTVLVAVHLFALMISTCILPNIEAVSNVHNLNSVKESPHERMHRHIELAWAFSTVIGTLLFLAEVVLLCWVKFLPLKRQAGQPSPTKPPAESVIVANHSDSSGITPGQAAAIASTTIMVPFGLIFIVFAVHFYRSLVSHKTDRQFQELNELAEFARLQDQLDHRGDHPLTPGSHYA

Row | percent of control (POC) of FACS Geo Mean | Binder
5 | < 1% | B1

These binders were tested against T6, hOrai1-mOrai1 ECL2 (PASGAA) protein (human/mouse chimera, UniProt Q96D31 1-301) (assay: FACS, 293EBNA).
T6 construct: also called Ch
Design: concentration or dose not given beside the values
Experimental: as §1, §2

T6 sequence (Q96D31 other isoform, or with tags, fused parts or gaps): as the sequence (Q96D31 other isoform, or with tags, fused parts or gaps mutant) above, with A216P, E217A, V219G, I220A, V221A counted along it

Row | percent of control (POC) of FACS Geo Mean | Binder
6 | < 1% | B1

Each binder was assayed against T5, hOrai1-mOrai1 ECL2 chimeric protein (assay: FACS, 293EBNA transfectants).
Text: FIG. 15A-B illustrates the results of FACS analysis showing binding to human Orai1 extracellular loop 2-mouse Orai1 mutant expressed on the surface of HEK-293-EBNA cells. HEK-293-EBNA cells were transiently transfected with mouse Orai1 mutant where human Orai1 extracellular loop 2 replaced the mouse Orai1 extracellular loop 2 and human Orai1 mutant where mouse Orai1 extracellular loop 2 replaced human extracellular loop 2. Transfected cells were stained first with recombinant monoclonal antibodies then counter-stained with a secondary phycoerythrin-labeled goat (“Gt”) anti-human (“Hu”) IgG F(ab′)₂ antibody fragment and visualized using FACS.
as §1

Row | binding result | Binder
7 | no binding (tested: 1 µg) | B1
8 | no binding (tested: 1 µg) | B2
9 | no binding (tested: 1 µg) | B3
10 | no binding (tested: 1 µg) | B4
11 | no binding (tested: 1 µg) | B5
12 | no binding (tested: 1 µg) | B6
13 | no binding (tested: 1 µg) | B7
14 | no binding (tested: 1 µg) | B8

What follows are binders tested against T7, hOrai1-mOrai1 ECL2 (…) protein (human/mouse chimera, UniProt Q96D31 1-301) (assay: FACS, 293EBNA, RFI-POC grade).
T7 construct: also called Ch
Design: concentration or dose not given beside the values
T7 sequence (Q96D31 other isoform, or with tags, fused parts or gaps): as the sequence (Q96D31 other isoform, or with tags, fused parts or gaps mutant) above, with S210R, K213S, P214K, A216P, E217A, V219G, I220A, V221A counted along it

Row | percent of control (POC) of FACS Geo Mean | Binder
15 | 40 to 100% | B2
16 | 40 to 100% | B3
17 | 40 to 100% | B4
18 | 40 to 100% | B5
19 | 40 to 100% | B6
20 | 40 to 100% | B7
21 | 40 to 100% | B8

These binders were tested against T8, hOrai1-mOrai1 ECL2 (…) protein (human/mouse chimera, UniProt Q96D31 1-301) (assay: FACS, 293EBNA, RFI-POC grade).
T8 construct: also called Ch
Design: concentration or dose not given beside the values
T8 sequence (Q96D31 other isoform, or with tags, fused parts or gaps): as the sequence (Q96D31 other isoform, or with tags, fused parts or gaps mutant) above, with R204K, A206P, S210R, K213S, P214K, A216P, E217A counted along it

Row | percent of control (POC) of FACS Geo Mean | Binder
22 | 40 to 100% | B2
23 | 40 to 100% | B3
24 | 40 to 100% | B4
25 | 40 to 100% | B5
26 | 40 to 100% | B6
27 | 40 to 100% | B7
28 | 40 to 100% | B8

Each binder was assayed against T9, mOrai1-hOrai1 ECL2 chimeric protein (human/mouse chimera, UniProt Q8BWG9 1-304 (mouse entry)) (assay: FACS, 293EBNA, RFI-POC grade).
T9 construct: mouse Orai1 with human ECL2; also called Ch
Design: concentration or dose not given beside the values

T9 sequence (Q8BWG9 other isoform, or with tags, fused parts or gaps mutant): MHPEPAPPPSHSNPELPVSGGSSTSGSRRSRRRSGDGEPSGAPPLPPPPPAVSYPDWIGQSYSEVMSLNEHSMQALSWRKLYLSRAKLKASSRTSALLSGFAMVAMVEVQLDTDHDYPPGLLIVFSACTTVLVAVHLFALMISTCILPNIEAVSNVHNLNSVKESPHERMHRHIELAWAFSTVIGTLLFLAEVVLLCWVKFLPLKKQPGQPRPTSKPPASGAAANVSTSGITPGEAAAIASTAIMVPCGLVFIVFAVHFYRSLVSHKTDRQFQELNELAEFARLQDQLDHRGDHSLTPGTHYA

Row | percent of control (POC) of FACS Geo Mean | Binder
29 | 40 to 100% | B2
30 | 40 to 100% | B3
31 | 40 to 100% | B4
32 | 40 to 100% | B5
33 | 40 to 100% | B6
34 | 40 to 100% | B7
35 | 40 to 100% | B8

Each binder was assayed against T10, hOrai1-mOrai1 ECL2 (RPTSKPPA) protein (human/mouse chimera, UniProt Q96D31 1-301) (assay: FACS, 293EBNA, RFI-POC grade).
T10 construct: also called Ch
Design: concentration or dose not given beside the values

T10 sequence (Q96D31 other isoform, or with tags, fused parts or gaps): as the sequence (Q96D31 other isoform, or with tags, fused parts or gaps mutant) above, with S210R, K213S, P214K, A216P, E217A counted along it

Row | percent of control (POC) of FACS Geo Mean | Binder
36 | 40 to 100% | B2
37 | 40 to 100% | B3
38 | 40 to 100% | B4
39 | 40 to 100% | B5
40 | 40 to 100% | B6
41 | 40 to 100% | B7
42 | 40 to 100% | B8

These binders were tested against T11, hOrai1-mOrai1 ECL2 (…) protein (human/mouse chimera, UniProt Q96D31 1-301) (assay: FACS, 293EBNA, RFI-POC grade).
T11 construct: also called Ch
Design: concentration or dose not given beside the values
T11 sequence (Q96D31 other isoform, or with tags, fused parts or gaps): as the sequence (Q96D31 other isoform, or with tags, fused parts or gaps mutant) above, with R204K, A206P, S210R, K213S, P214K, A216P, E217A, V219G, I220A, V221A counted along it

Row | percent of control (POC) of FACS Geo Mean | Binder
43 | 40 to 100% | B2
44 | 40 to 100% | B3
45 | 40 to 100% | B4
46 | 40 to 100% | B5
47 | 40 to 100% | B6
48 | 40 to 100% | B7
49 | 40 to 100% | B8

The binders below were run against T12, hOrai1-mOrai1 ECL2 (SKPPA) protein (human/mouse chimera, UniProt Q96D31 1-301) (assay: FACS, 293EBNA, RFI-POC grade).
T12 construct: also called Ch
Design: concentration or dose not given beside the values

T12 sequence (Q96D31 other isoform, or with tags, fused parts or gaps): as the sequence (Q96D31 other isoform, or with tags, fused parts or gaps mutant) above, with K213S, P214K, A216P, E217A counted along it

Row | percent of control (POC) of FACS Geo Mean | Binder
50 | 40 to 100% | B2
51 | 40 to 100% | B3
52 | 40 to 100% | B4
53 | 5 to 40% | B5
54 | 5 to 40% | B6
55 | 40 to 100% | B7
56 | 40 to 100% | B8
